According to US20030158083A1, “Method of effecting angiogenesis by modulating the function of a novel endothelia phosphatase” (The Procter & Gamble Company, priority 2002, published 2003):

Tests used:
Type in all cases: binding
[1] = target: T1, human VEGFR2 intracellular domain (Homo sapiens, UniProt P35968); assay: Yeast two-hybrid interaction with intracellular domain of VEGFR2; details: growth on histidine-deficient and uracil-deficient media
T1 construct: expressed in transfected cells; host or cells: yeast strain MaV203 (pDBLeu-hVEGFR2)
T1 sequence (P35968 790-1356): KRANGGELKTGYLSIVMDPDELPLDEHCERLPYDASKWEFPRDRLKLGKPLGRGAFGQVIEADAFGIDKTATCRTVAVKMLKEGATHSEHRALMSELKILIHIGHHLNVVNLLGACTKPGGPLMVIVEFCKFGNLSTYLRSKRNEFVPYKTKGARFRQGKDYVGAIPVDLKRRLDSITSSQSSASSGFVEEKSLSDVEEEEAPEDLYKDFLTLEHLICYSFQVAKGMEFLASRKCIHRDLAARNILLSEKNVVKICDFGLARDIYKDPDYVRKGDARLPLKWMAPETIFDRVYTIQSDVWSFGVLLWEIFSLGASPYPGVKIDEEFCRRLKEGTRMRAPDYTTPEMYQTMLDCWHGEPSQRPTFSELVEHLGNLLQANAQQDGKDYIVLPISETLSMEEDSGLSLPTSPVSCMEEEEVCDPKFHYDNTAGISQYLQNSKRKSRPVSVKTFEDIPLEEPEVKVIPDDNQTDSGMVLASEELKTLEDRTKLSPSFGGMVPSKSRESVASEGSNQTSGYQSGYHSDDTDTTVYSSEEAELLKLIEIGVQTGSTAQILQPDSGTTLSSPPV
Text: (§1) All two-hybrid plasmid constructs used the pDBLeu and pPC86 yeast expression vectors as a part of the ProQuest Two-Hybrid System (Life Technologies, Rockville, Md.). A cDNA encoding the intracellular domain of human VEGFR2 was generated by PCR from a human VEGFR2/pJFE14 construct, obtained from Regeneron Pharmaceuticals (Tarrytown, N.Y.), and subcloned into the yeast bait vector downstream of the GAL4 DNA-binding domain. A human umbilical vein endothelial cell (HUVEC) cDNA library (in pPC86) was co-transformed with pDBLeu-hVEGFR2 into the MaV203 strain of yeast. Proteins that interacted with the intracellular domain of human VEGFR2 were selected and tested for specificity according to the manufacturer's instructions.
(§2) In an ongoing effort to understand mechanisms by which the biological activity of VEGF is mediated through the VEGF receptor-2 (KDR/Flk-1), we used the entire cytoplasmic domain of KDR as bait to screen human umbilical vein endothelial cell (HUVEC) and human fetal brain cDNA libraries in the yeast two-hybrid system. The intracellular domain of human VEGFR2 (790-1357 SEQ ID NO 8) was constructed in the bait plasmid (pDBLeu) and the cDNA libraries were constructed in the prey plasmid (pPC86). Following transformation of yeast, positive clones were selected by growth on histidine-deficient media and for the expression of β-galactosidase activity (X-gal selection). […]

[2] = target: T2, human VEGFR2 intracellular domain (Homo sapiens, UniProt P35968, K868R); assay: as above; details: ATP binding site mutated (K870R)
T2 construct: expressed in transfected cells; host or cells: yeast strain MaV203 (pDBLeu-hVEGFR2)
T2 sequence (P35968 790-1356 K868R): as the sequence (P35968 790-1356) above, with K79R counted along it
Text: as §1, §2

[3] = target: T3, human VEGF receptor-2 (KDR) (Homo sapiens, UniProt P35968); assay: GST pull-down association assay, VEGFR2; details: HEK 293 lysate expressing His-tagged protein; Western blot
T3 construct: the intracellular domain of each receptor tyrosine kinase was generated as an in-frame GST fusion; made in house; host or cells: Sf9 insect cells (baculovirus)
T3 sequence (P35968 790-1356): as the sequence (P35968 790-1356) above

[4] = target: T4, human VEGF receptor-2 (KDR) (Homo sapiens, UniProt P35968, Y1175F); assay: GST pull-down association assay, VEGFR2; details: GST fusion Y1175F versus wild-type
T4 construct: the intracellular domain of each receptor tyrosine kinase was generated as an in-frame GST fusion; made in house; host or cells: Sf9 insect cells (baculovirus)
T4 sequence (P35968 790-1356 Y1175F): as the sequence (P35968 790-1356) above, with Y386F counted along it

B1: KAPh: novel human KDR Associated Phosphatase protein, full-length sequence SEQ ID NOS 1 and 2 (protein, listed as Homo sapiens)
chain: MKPRKAEPHSFREKVFRKKPPVCAVCKVTIDGTGVSCRVCKVATHRKCEAKVTSACQALPPVELRRNTAPVRRIEHLGSTKSLNHSKQRSTLPRSFSLDPLMERRWDLDLTYVTERILAAAFPARPDEQRHRGHLRELAHVLQSKHRDKYLLFNLSEKRHDLTRLNPKVQDFGWPELHAPPLDKLCSICKAMETWLSADPQHVVVLYCKGNKGKLGVIVSAYMHYSKISAGADQALATLTMRKFCEDKVATELQPSQRRYISYFSGLLSGSIRMNSSPLFLHYVLIPMLPAFEPGTGFQPFLKIYQSMQLVYTSGVYHIAGPGPQQLCISLEPALLLKGDVMVTCYHKGGRGTDRTLVFRVQFHTCTIHGPQLTFPKDQLDEAWTDERFPFQASVEFVFSSSPEKIKGSTPRNDPSVSVDYNTTEPAVRWDSYENFNQHHEDSVDGSLTHTRGPLDGSPYAQVQRPPRQTPPAPSPEPPPPPMLSVSSDSGHSSTLTTEPAAESPGRPPPTAAERQELDRLLGGCGVASGGRGAGRETAILDDEEQPTVGGGPHLGVYPGHRPGLSRHCSCRQGYREPCGVPNGGYYRPEGTLERRRLAYGGYEGSPQGYAEASMEKRRLCRSLSEGLYPYPPEMGKPATGDFGYRAPGYREVVILEDPGLPALYPCPACEEKLALPTAALYGLRLEREAGEGWASEAGKPLLHPVRPGHPLPLLLPACGHHHAPMPDYSCLKPPKAGEEGHEGCSYTMCPEGRYGHPGYPALVTYSYGGAVPSYCPAYGRVPHSCGSPGEGRGYPSPGAHSPRAGSISPGSPPYPQSRKLSYEIPTEEGGDRYPLPGHLASAGPLASAESLEPVSWREGPSGHSTLPRSPRDAPCSASSELSGPSTPLHTSSPVQGKESTRRQDTRSPTSAPTQRLSPGEALPPVSQAGTGKAPELPSGSGPEPLAPSPVSPTFPPSSPSDWPQERSPGGHSDGASPRSPVPTTLPGLRHAPWQGPRGPPDSPDGSPLTPVPSQMPWLVASPEPPQSSPTPAFPLAASYDTNGLSQPPLPEKRHLPGPGQQPGPWGPEQASSPARGISHHVTFAPLLSDNVPQTPEPPTQESQSNVKFVQDTSKFWYKPHLSRDQAIALLKDKDPGAFLIRDSHSFQGAYGLALKVATPPPSAQPWKGDPVEQLVRHFLIETGPKGVKIKGCPSEPYFGSLSALVSQHSISPISLPCCLRILSKDPLEETPEAPVPTNMSTAADLLRQGAACSVLYLTSVETESLTGPQAVARASSAALSCSPRPTPAVVHFKVSAQGITLTDNQRKLFFRRHYPVNSITFSSTDPQDRRWTNPDGTTSKIFGFVAKKPGSPWENVCHLFAELDPDQPAGAIVTFITKVLLGQRK
yeast two-hybrid interaction with wild-type KDR [1]: robust protein-protein interaction
yeast two-hybrid interaction with KDR K870R mutant [2]: essentially no significant interaction
interaction with GST VEGFR2, wild-type versus catalytically inactive K870R [3]: interacted in an autophosphorylation-dependent manner
interaction with VEGFR2 Y1175F mutant [4]: nearly abolished
